Test results published in US20130196933A1 (BOARD OF TRUSTEES OF THE UNIVERSITY OF ILLINOIS, published 2013).

What was measured:
[1] = target: T1, GFP-FoxM1B fusion protein, wild type (CMV GFP-FoxM1B; GFP-T7-FoxM1B WT; GFP-FoxM1B 1-748 full-length) (human, UniProt Q08050 1-763); experiment: Co-IP with HA antibody, Western blot with GFP antibody
T1 construct: Expressed in transfected U2OS cells; also called CMV-GFP-T7-FoxM1B; GFP-FoxM1B WT; not shown: green fluorescent protein (EGFP) of the pEGFP-C2 expression plasmid (Clontech), N-terminal fusion partner
T1 sequence: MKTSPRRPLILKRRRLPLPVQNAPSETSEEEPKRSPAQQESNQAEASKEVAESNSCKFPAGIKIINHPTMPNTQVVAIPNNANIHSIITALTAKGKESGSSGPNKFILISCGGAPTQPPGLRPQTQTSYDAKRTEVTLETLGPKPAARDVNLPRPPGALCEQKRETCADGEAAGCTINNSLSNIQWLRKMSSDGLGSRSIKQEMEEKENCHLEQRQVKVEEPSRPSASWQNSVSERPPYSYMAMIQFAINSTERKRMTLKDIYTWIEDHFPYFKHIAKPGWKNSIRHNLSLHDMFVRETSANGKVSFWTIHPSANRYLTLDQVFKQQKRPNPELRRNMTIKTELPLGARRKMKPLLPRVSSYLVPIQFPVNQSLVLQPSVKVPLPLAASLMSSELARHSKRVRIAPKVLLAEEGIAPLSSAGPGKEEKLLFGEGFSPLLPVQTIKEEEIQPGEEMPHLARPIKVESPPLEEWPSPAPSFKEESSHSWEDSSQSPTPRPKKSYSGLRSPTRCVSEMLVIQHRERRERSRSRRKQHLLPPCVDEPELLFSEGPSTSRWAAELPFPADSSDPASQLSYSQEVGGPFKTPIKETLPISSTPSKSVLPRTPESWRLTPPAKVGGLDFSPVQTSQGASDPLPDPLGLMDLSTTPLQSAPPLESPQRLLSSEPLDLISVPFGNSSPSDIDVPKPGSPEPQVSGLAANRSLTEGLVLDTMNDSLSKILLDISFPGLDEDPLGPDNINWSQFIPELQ

[2] = target: T2, GFP-FoxM1B 1-688 protein (human, UniProt Q08050 1-703); experiment: Co-IP from transfected U2OS extracts
T2 construct: not shown: green fluorescent protein (EGFP) of the pEGFP-C2 expression plasmid (Clontech), N-terminal fusion partner
T2 sequence: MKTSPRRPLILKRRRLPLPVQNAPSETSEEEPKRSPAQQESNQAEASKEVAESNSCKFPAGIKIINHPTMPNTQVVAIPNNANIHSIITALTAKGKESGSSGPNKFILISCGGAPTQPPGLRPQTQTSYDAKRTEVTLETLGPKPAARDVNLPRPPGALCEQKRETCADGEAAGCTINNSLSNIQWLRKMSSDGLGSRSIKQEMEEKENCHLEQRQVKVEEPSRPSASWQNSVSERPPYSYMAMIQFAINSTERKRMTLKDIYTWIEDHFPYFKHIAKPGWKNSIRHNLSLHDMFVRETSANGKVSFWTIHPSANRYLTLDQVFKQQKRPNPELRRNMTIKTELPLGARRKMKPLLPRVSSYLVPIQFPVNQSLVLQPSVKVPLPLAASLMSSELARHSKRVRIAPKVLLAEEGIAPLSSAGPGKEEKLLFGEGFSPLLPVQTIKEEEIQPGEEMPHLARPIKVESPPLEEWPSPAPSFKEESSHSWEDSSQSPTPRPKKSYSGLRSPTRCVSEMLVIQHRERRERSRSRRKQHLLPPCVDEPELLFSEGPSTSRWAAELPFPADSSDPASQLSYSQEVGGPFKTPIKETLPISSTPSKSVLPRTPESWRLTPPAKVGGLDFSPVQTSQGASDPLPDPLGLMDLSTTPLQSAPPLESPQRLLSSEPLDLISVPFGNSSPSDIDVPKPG

[3] = target: Cdk2 protein (human, UniProt P24941 1-298); experiment: Co-IP from transfected U2OS extracts with Cdk2 antibody, Western blot with T7 tag antibody
From the text: The immunoprecipitated proteins were subjected to Western blot analysis using a monoclonal antibody against the T7 epitope tagged antibody protein.

Binder	binding result [1]	other results
HA-p19^ARF Δ26-37+Δ1-14 deletion mutant (other, not shown: small tags and cut ends, Deletion of p19 residues 1-14 and 26-37) GRPLQERVFLVCALAFVNMLLRLERILRRGPHRNPGPGDDDGQRSRSSSSAQLRCRFELRGPHYLLPPGDRRSAGRLPGHAGGAARVRGSAGCARCLGSPAARLGPRAGTSRHRAIFAFRWVLFVFRWVVFVYRWERRPDRRA	no binding	–
HA-p19^ARF WT protein (other, not shown: small tags and cut ends, residues 26-44 of it are the printed p19ARF 26-44 peptide; Expressed in transfected U2OS cells; also called WT p19; HA tagged p19) MGRRFLVTVRIQRAGRPLQERVFLVKFVRSRRPRTASCALAFVNMLLRLERILRRGPHRNPGPGDDDGQRSRSSSSAQLRCRFELRGPHYLLPPGDRRSAGRLPGHAGGAARVRGSAGCARCLGSPAARLGPRAGTSRHRAIFAFRWVLFVFRWVVFVYRWERRPDRRA	–	binding result [2]: no binding
HA-p19^ARF Δ26-37 deletion mutant (other, not shown: small tags and cut ends, Deletion of p19 residues 26-37; also called CMV p19^ARFΔ26-37) MGRRFLVTVRIQRAGRPLQERVFLVCALAFVNMLLRLERILRRGPHRNPGPGDDDGQRSRSSSSAQLRCRFELRGPHYLLPPGDRRSAGRLPGHAGGAARVRGSAGCARCLGSPAARLGPRAGTSRHRAIFAFRWVLFVFRWVVFVYRWERRPDRRA	no binding	–
T7-FoxM1B L641A mutant protein (other, not shown: small tags and cut ends, expressed in transfected U2OS cells; also called CMV T7-FoxM1B L641A; CMV FoxM1B L641A) MKTSPRRPLILKRRRLPLPVQNAPSETSEEEPKRSPAQQESNQAEASKEVAESNSCKFPAGIKIINHPTMPNTQVVAIPNNANIHSIITALTAKGKESGSSGPNKFILISCGGAPTQPPGLRPQTQTSYDAKRTEVTLETLGPKPAARDVNLPRPPGALCEQKRETCADGEAAGCTINNSLSNIQWLRKMSSDGLGSRSIKQEMEEKENCHLEQRQVKVEEPSRPSASWQNSVSERPPYSYMAMIQFAINSTERKRMTLKDIYTWIEDHFPYFKHIAKPGWKNSIRHNLSLHDMFVRETSANGKVSFWTIHPSANRYLTLDQVFKQQKRPNPELRRNMTIKTELPLGARRKMKPLLPRVSSYLVPIQFPVNQSLVLQPSVKVPLPLAASLMSSELARHSKRVRIAPKVLLAEEGIAPLSSAGPGKEEKLLFGEGFSPLLPVQTIKEEEIQPGEEMPHLARPIKVESPPLEEWPSPAPSFKEESSHSWEDSSQSPTPRPKKSYSGLRSPTRCVSEMLVIQHRERRERSRSRRKQHLLPPCVDEPELLFSEGPSTSRWAAELPFPADSSDPASQLSYSQEVGGPFKTPIKETLPISSTPSKSVLPRTPESWRLTPPAKVGGLDFSPVQTSQGASDPLPDPLGAMDLSTTPLQSAPPLESPQRLLSSEPLDLISVPFGNSSPSDIDVPKPGSPEPQVSGLAANRSLTEGLVLDTMNDSLSKILLDISFPGLDEDPLGPDNINWSQFIPELQ	–	binding result [3]: no binding
